According to patent publication US20220227814A1 (NEVADA RESEARCH AND INNOVATION, published 2022):
Bridge positions count the residues as written; N and C are the ends. Square brackets hold non-standard residues; d marks the D form. Ends that are not written are not given here. Dap = NC[C@H](N)C(=O)O

B1: CSP1-cyc(Orn6D10) (peptide)
peptide: EMRLSXFFRDFILQRKK
modifications: Orn (ornithine) at position 6; side chain-to-side chain lactam between Orn6 and Asp10
B2: CSP1-cyc(Orn6E10) (peptide)
peptide: EMRLSXFFREFILQRKK
modifications: Orn (ornithine) at position 6; side chain-to-side chain lactam between Orn6 and Glu10

Target: T1, ComD1 receptor (Streptococcus pneumoniae)
Test: cell-based or functional assay

Binder	maximal induction of comX compared to CSP1 [%]	fold reduction in potency against CSP1 [fold]	fold inhibition potency compared to CSP1-E1A-cyc(Dap6E10) [fold]	fold potency compared to CSP1-cyc(Orn6D10) [fold]
B1	100	–	–	–
EMRLSKFFDDFILQRKK [CSP1 with Arg9 replaced with Asp (linear)]	–	> 100	–	–
EMRLSKFFRDFILQRKK (lactam 6-10) [CSP1-cyc(K6D10)]	44	–	–	–
AMRLS[Dap]FFREFILQR (lactam 6-10) [CSP1-E1A-des-K16K17-cyc(Dap6E10)]	–	–	~10	–
EMRLSXFFREFILQRKK (Dab at position 6; side chain-to-side chain lactam between Dab6 and Glu10) [CSP1-cyc(Dab6E10)]	100	–	–	10
EMRLSXFFREFILQRKK (Dap at position 6; side chain-to-side chain lactam between Dap6 and Glu10) [CSP1-cyc(Dap6E10)]	100	–	–	10

Target: T2, ComD2 receptor (Streptococcus pneumoniae)
Test: cell-based or functional assay

Binder	fold decrease in fold potency compared to CSP1-cyc(Dab6E10) and CSP1-cyc(Dap6E10) [fold]	fold inhibition potency compared to CSP2-E1Ad10 [fold]	fold inhibition potency compared to CSP1-E1A-cyc(Dap6E10) [fold]	fold potency compared to CSP2 [fold]
B1	> 30	–	–	–
AMRLS[Dap]FFREFILQRKK (lactam 6-10) [CSP1-E1A-cyc(Dap6E10)]	–	3	–	–
AMRLS[Dap]FFREFILQR (lactam 6-10) [CSP1-E1A-des-K16K17-cyc(Dap6E10)]	–	–	3	–
EMRLSXFFREFILQRKK (Dap at position 6; side chain-to-side chain lactam between Dap6 and Glu10) [CSP1-cyc(Dap6E10)]	–	–	–	~4

Target: T1, ComD1 receptor
Test: cell-based or functional assay
Remark: another data set of the same source

Binder	IC50 (reporter strain) [nM]	EC50 (reporter strain) [nM]
AMRLSXFFREFILQRKK (Dab at position 6; side chain-to-side chain lactam between Dab6 and Glu10) [CSP1-E1A-cyc(Dab6E10)]	173	–
B1	–	193
EMRISRIILDFLFLRKK [CSP2 (competence stimulating peptide 2)]	–	1650
AMRLS[Dap]FFREFILQRKK (lactam 6-10) [CSP1-E1A-cyc(Dap6E10)]	75.8	–
EMRLSKFFRDFILDRKK (lactam 6-14) [CSP1-cyc(K6D14)]	–	> 1000
EMRLSXFFRDFILQRKK (Dab at position 6; side chain-to-side chain lactam between Dab6 and Asp10) [CSP1-cyc(Dab6D10)]	–	59.5
EMRLSKFFRDFILQRKK (lactam 6-10) [CSP1-cyc(K6D10)]	–	258
EMRLSKFFRDFILQRKK [CSP1 (competence stimulating peptide 1)]	–	10.3
AMRLS[Dap]FFREFILQR (lactam 6-10) [CSP1-E1A-des-K16K17-cyc(Dap6E10)]	7.57	–
EMRLSXFFREFILQRKK (Dab at position 6; side chain-to-side chain lactam between Dab6 and Glu10) [CSP1-cyc(Dab6E10)]	–	12.2
EMRLSXFFREFILQRKK (Dap at position 6; side chain-to-side chain lactam between Dap6 and Glu10) [CSP1-cyc(Dap6E10)]	–	14.6
B2	–	422
EMRLSKFFREFILQRKK (lactam 6-10) [CSP1-cyc(K6E10)]	–	350
EMRLSXFFRDFILQRKK (Dap at position 6; side chain-to-side chain lactam between Dap6 and Asp10) [CSP1-cyc(Dap6D10)]	–	435
EMRLSKFFDDFILQRKK (lactam 6-9) [CSP1-cyc(K6D9)]	–	> 1000
EMRLSKFFRKFILDRKK (lactam 10-14) [CSP1-cyc(K10D14)]	–	257

Target: T2, ComD2 receptor
Test: cell-based or functional assay
Remark: another data set of the same source

Binder	EC50/IC50 (kind not distinguishable; reporter strain) [nM]	EC50 (reporter strain) [nM]	IC50 (reporter strain) [nM]
AMRLSXFFREFILQRKK (Dab at position 6; side chain-to-side chain lactam between Dab6 and Glu10) [CSP1-E1A-cyc(Dab6E10)]	> 1000	–	–
B1	–	> 1000	–
EMRISRIILDFLFLRKK [CSP2 (competence stimulating peptide 2)]	–	50.7	–
AMRLS[Dap]FFREFILQRKK (lactam 6-10) [CSP1-E1A-cyc(Dap6E10)]	–	–	182
EMRLSKFFRDFILDRKK (lactam 6-14) [CSP1-cyc(K6D14)]	–	> 1000	–
EMRLSXFFRDFILQRKK (Dab at position 6; side chain-to-side chain lactam between Dab6 and Asp10) [CSP1-cyc(Dab6D10)]	–	> 1000	–
AMRLS[Dap]FFREFILQR (lactam 6-10) [CSP1-E1A-des-K16K17-cyc(Dap6E10)]	–	–	67.2
EMRLSXFFREFILQRKK (Dab at position 6; side chain-to-side chain lactam between Dab6 and Glu10) [CSP1-cyc(Dab6E10)]	–	31.4	–
EMRLSXFFREFILQRKK (Dap at position 6; side chain-to-side chain lactam between Dap6 and Glu10) [CSP1-cyc(Dap6E10)]	–	13.1	–
B2	–	> 1000	–
EMRLSKFFREFILQRKK (lactam 6-10) [CSP1-cyc(K6E10)]	–	> 1000	–
EMRLSXFFRDFILQRKK (Dap at position 6; side chain-to-side chain lactam between Dap6 and Asp10) [CSP1-cyc(Dap6D10)]	–	> 1000	–
EMRLSKFFDDFILQRKK (lactam 6-9) [CSP1-cyc(K6D9)]	–	528	–

Target: T1, ComD1 receptor
Test: cell-based or functional assay
Remark: another data set of the same source

Binder	IC50 (ComD1 EC50/IC50; β-gal reporter) [nM]	EC50 (ComD1 EC50/IC50; β-gal reporter) [nM]	EC50/IC50 (kind not distinguishable; β-gal reporter) [nM]
AMRLSXFFREFILQRKK (Dab at position 6; side chain-to-side chain lactam between Dab6 and Glu10) [CSP1-E1A-cyc(Dab6E10)]	173	–	–
EMRISRIILDFLFLRKK [CSP2 (competence stimulating peptide 2)]	–	1650	–
EMRLSAFFRDFILQRKK [CSP1-K6A]	–	51	–
AMRLS[Dap]FFREFILQRKK (lactam 6-10) [CSP1-E1A-cyc(Dap6E10)]	75.8	–	–
AMRISRIIL[dD]FLFLRKK [CSP2-E1Ad10]	–	–	> 1000
AMRLSKFFRDFILQRKK [CSP1-E1A]	85.7	–	–
EMRLSKFFRDFILQRKK [CSP1 (competence stimulating peptide 1)]	–	10.3	–
AMRLS[Dap]FFREFILQR (lactam 6-10) [CSP1-E1A-des-K16K17-cyc(Dap6E10)]	7.57	–	–
EMRISRIIL[dD]FLFLRKK [CSP2-d10]	–	513	–

Target: T2, ComD2 receptor
Test: cell-based or functional assay
Remark: another data set of the same source

Binder	EC50/IC50 (kind not distinguishable; β-gal reporter) [nM]	EC50 (ComD2 EC50/IC50; β-gal reporter) [nM]	IC50 (ComD2 EC50/IC50; β-gal reporter) [nM]
AMRLSXFFREFILQRKK (Dab at position 6; side chain-to-side chain lactam between Dab6 and Glu10) [CSP1-E1A-cyc(Dab6E10)]	> 1000	–	–
EMRISRIILDFLFLRKK [CSP2 (competence stimulating peptide 2)]	–	50.7	–
EMRLSAFFRDFILQRKK [CSP1-K6A]	–	24	–
AMRLS[Dap]FFREFILQRKK (lactam 6-10) [CSP1-E1A-cyc(Dap6E10)]	–	–	182
AMRISRIIL[dD]FLFLRKK [CSP2-E1Ad10]	–	–	56.5
AMRLSKFFRDFILQRKK [CSP1-E1A]	> 10000	–	–
AMRLS[Dap]FFREFILQR (lactam 6-10) [CSP1-E1A-des-K16K17-cyc(Dap6E10)]	–	–	67.2
EMRISRIIL[dD]FLFLRKK [CSP2-d10]	–	2.86	–
